Key:
[1] = tested on: Treg cells; assay: pSTAT5 concentration-response in human LRS-derived PBMC samples (flow cytometry): Treg cells; assay type: cell-based; details: Table 4; ratio of pSTAT5 EC50 values
Method: These studies were performed at PrimityBio LLC (Fremont, Calif.). […] Staining panel for flow cytometry study of LRS-derived PBMC samples include markers for Effector T cells (Teff: CD3+, CD4+, CD8+, CD127+), NK cells (CD3-, CD16+), and Regulatory T cells (Treg: CD3+, CD4+, CD8-, IL-2Rα+, CD127-1).
The EC50 values (pg/mL) was calculated from dose response curves generated from MFI plots.
These studies were performed at PrimityBio LLC (Fremont, Calif.). […] Staining panel for flow cytometry study of LRS-derived PBMC samples include markers CD4, CD4+ memory central, CD4+ memory effect, CD4+ memory T cells, CD4+ Naive T cells, CD4+ T cells, CD8, CD8+ memory central, CD8+ memory effect, CD8+ memory T cells, CD8+ Naive T cells, CD8+ T cells, NK cells, and T regulatory cells.
Conjugates of Table 12 were synthesized by modification of SEQ NO. 1. These studies were performed at PrimityBio LLC (Fremont, Calif.).
The EC50 values (pg/ml) were calculated from dose response curves generated from the MFI plots.

[2] = tested on: pSTAT5 and proliferation in CD8+ T, NK and Treg cells; assay: Pharmacodynamics in peripheral blood compartment (pSTAT5, Ki-67, cell counts), Example 5; assay type: in vivo, C57BL/6 mice; details: mice
From the text: Terminal blood samples were collected via cardiac puncture at the points indicated. […] Plasma and blood cells (in both studies) and tumors in study E3826-U1803 were collected for PK and PD analyses.
STAT5 phosphorylation and induction of cell proliferation (the early molecular marker Ki-67 and cell counts) was used as pharmacodynamics readouts to assess the pharmacological profile of P65_30kD relative to its pharmacokinetics.

[3] = tested on: CTLL-2; assay: CTLL-2 proliferation; assay type: cell-based; details: Table 4
[4] = biological target: T1, IL-2 receptor βγ complex (IL-2Rβ and IL-2Rγ subunits) (Homo sapiens, UniProt P14784+P31785); assay: PathHunter IL-2 Cytokine Receptor assay, agonist mode, βγ cell line; assay type: cell-based; details: ratio of the EC50 values
T1 construct: host or cells: recombinant human U2OS cell line (PathHunter)
T1 sequence (P14784 27-551): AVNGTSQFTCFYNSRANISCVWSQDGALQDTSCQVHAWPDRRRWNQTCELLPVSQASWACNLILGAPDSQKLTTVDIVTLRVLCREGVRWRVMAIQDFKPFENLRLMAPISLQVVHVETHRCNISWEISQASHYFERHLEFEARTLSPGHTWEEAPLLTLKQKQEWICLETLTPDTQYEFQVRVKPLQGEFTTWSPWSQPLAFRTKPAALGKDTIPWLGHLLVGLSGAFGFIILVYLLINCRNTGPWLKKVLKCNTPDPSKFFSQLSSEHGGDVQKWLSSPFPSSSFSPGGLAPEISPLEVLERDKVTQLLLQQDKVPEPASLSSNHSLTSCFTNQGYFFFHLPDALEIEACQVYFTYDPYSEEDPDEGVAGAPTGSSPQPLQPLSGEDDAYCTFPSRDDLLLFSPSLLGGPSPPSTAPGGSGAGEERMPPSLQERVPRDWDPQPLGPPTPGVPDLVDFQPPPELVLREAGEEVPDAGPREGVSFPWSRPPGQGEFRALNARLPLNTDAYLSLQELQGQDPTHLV
T1 sequence (P31785 23-369): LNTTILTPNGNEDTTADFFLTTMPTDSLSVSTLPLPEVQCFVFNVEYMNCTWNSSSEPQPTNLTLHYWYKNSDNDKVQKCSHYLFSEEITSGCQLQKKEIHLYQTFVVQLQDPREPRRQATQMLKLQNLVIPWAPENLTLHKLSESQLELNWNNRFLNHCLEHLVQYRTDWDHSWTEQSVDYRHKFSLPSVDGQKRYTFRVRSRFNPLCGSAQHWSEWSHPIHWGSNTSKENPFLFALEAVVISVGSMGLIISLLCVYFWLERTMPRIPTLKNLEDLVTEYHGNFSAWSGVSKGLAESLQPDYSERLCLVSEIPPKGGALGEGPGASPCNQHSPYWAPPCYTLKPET
Method: PathHunter cell lines were expanded from freezer stocks according to standard procedures. Cells were seeded in a total volume of 20 μL into white walled, 384-well microplates and incubated for the appropriate time prior to testing.
For agonist determination, cells were incubated with sample to induce response. Intermediate dilution of sample stocks was performed to generate 5× sample in assay buffer. About 5 μL of 5× sample was added to cells and incubated at 37° C. for 6 to 16 hours depending on the assay. Vehicle concentration was 1%.
Assay signal was generated through a single addition of 12.5 or 15 μL (50% v/v) of PathHunter Detection reagent cocktail for agonist and antagonist assays respectively, followed by a one hour incubation at room temperature. For some assays, activity was detected using a high sensitivity detection reagent (PathHunter Flash Kit) to improve assay performance. In these assays, an equal volume of detection reagent (25 or 30 μL) was added to the wells, followed by a one hour incubation at room temperature. Microplates were read following signal generation with a PerkinElmer Envision™ instrument for chemiluminescent signal detection.
Compound activity was analyzed using CBIS data analysis suite (ChemInnovation, CA). For agonist mode assays, percentage activity was calculated using the following Formula:
% Activity=100%×(mean RLU of test sample−mean RLU of vehicle control)/(mean MAX RLU control ligand−mean RLU of vehicle control).
A second cell line has been further engineered to express the IL-2Rα subunit. […] The assay was run in agonist mode to determine the EC50 of each test article, and comparison of dose-response curve profiles between IL2Rα positive and negative cell types allows determination of the contribution of IL2Rα to the observed activity.

[5] = PK/PD in cynomolgus monkeys, Study No. 20157276; details: cynomolgus monkey, 0.3 mg/kg single IV
Method: The study was conducted at Charles River Laboratories, Inc. (Reno, Nev.) and PK data analysis was performed at NW Solutions (Seattle, Wash.). […] Both plasma and blood cells were collected for PK and PD analyses. Selected time points were used for PK, PD, cell population and hematology analysis.

P65_30kD: SEQ ID NO: 25: IL-2 (SEQ ID NO: 4) with P65 replaced by AzK click-conjugated to methoxy linear 30 kDa PEG [Compound P65_30kD]
CD8/Treg ratio [1]: 2.8
proliferative responses of CD8+ effector T cells and NK cells (not Tregs), time window [2]: 72 to 120 h
persistent elevation of pSTAT5 in NK and CD8+ T cells, up to ([2]; single IV dose): up to 72 h
persistent elevation of pSTAT5 in Tregs, up to ([2]; single IV dose): up to 24 h
EC50, CTLL-2 proliferation [3]: 677,198 pg/mL
βγ/αβγ ratio [4]: 5
AUC0-t, Animal 2705 [5]: 120 µg·h/mL
AUC0-t, Mean [5]: 121 µg·h/mL
CL, Animal 2699 [5]: 2.47 mL/h/kg
CL, Animal 2705 [5]: 2.49 mL/h/kg
CL, Mean [5]: 2.48 mL/h/kg
Cmax, Animal 2699 [5]: 11000 ng/mL
Cmax, Animal 2705 [5]: 11400 ng/mL
Cmax, Mean [5]: 11200 ng/mL
Tmax, Animal 2699 [5]: 30 min
Tmax, Animal 2705 [5]: 30 min
Vss, Animal 2699 [5]: 0.029 L/kg
Vss, Animal 2705 [5]: 0.0321 L/kg
Vss, Mean [5]: 0.0305 L/kg
mean plasma concentrations measurable out to (post-dose) [5]: 168 h
Tmax, Mean ([5]; 0.3 mg/kg): 30 min

From patent US20210046160A1 (Synthorx, Inc., priority 2019, published 2021)
